The supplement of paper PMC9170038

Test system: MS2 coat protein
Assay: apparent KD of MS2 coat protein; designed switch direction (-1 OFF switch, 1 ON switch): -1; higher = weaker reporter binding
Procedure, shortened: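 RNA switches sharing common flanks were transcribed by stalled E. coli RNA polymerase on Illumina chips. A doubling series of SNAP-549-labelled MS2 coat protein, from 0.7 or 1.5 nM to 3 µM, was applied in Tris-HCl pH 7.5 buffer with KCl, MgCl2, BSA, DTT, tRNA and Tween-20. Each step lasted 0.8–1.5 h at the bottom of the series and 10–20 min at the top. Normalised cluster fluorescence was curve-fitted, giving apparent KD as the per-design median over clusters.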

[1] = input ligand: microRNA oligo, concentration not stated
[2] = Eterna round: R95, input ligand: FMN 200 uM
[3] = Eterna round: R95, input ligand: microRNA oligo, concentration not stated
[4] = Eterna round: R95, input ligand: none

## CGAUGAGGAGUGAGGAUAUCGUGUUCGAAAGAACGUGAGAAGGCACAUGAGGAUCACCCAUGUGAUUCUUGUCG [Omei Ex4B A18] (Eterna round: R97, puzzle: Brourd's mod of Exclusion 4)
Input ligand: FMN 200 uM
  apparent KD of MS2 coat protein: 77.6 nM
Input ligand: none
  apparent KD of MS2 coat protein: 22.2 nM

## CCCACAGGACAUGAGGAUCACCCAUGUGCGAUAUCCUGAGCGCAGGAUAUUUUCCCACGAAAGGAAGAGAAGGGCGCCGAAAGC [Eternabot solution 1] (Eterna round: R96, puzzle: Exclusion NG 3)
Input ligand: FMN 200 uM
  apparent KD of MS2 coat protein: 24.6 nM
[1]
  apparent KD of MS2 coat protein: 29.6 nM
Input ligand: none
  apparent KD of MS2 coat protein: 44.3 nM

## AAACGGGUGUCCUCGUUUUCAACAUGAGGAUCACCCAUGUUCGAGGAUAUCCGAUAAGCUCUUCAGGAGAAGGCGAACAUAAAA [Eninenat] (Eterna round: R96, puzzle: Exclusion NG 3)
Input ligand: FMN 200 uM
  apparent KD of MS2 coat protein: 14.7 nM
[1]
  apparent KD of MS2 coat protein: 32.1 nM
Input ligand: none
  apparent KD of MS2 coat protein: 18.4 nM

## CCCACGCACCAAGGAUAUGUUCCGCACAUGAGGAUCACCCAUGUGGCCAGCGAUUCUGUGUGAGAACAGAAGGUGGUUAUGUUA [Eternabot solution 41] (Eterna round: R96, puzzle: Exclusion NG 2)
Input ligand: FMN 200 uM
  apparent KD of MS2 coat protein: 468 nM
[1]
  apparent KD of MS2 coat protein: 315 nM
Input ligand: none
  apparent KD of MS2 coat protein: 219 nM

## UGUUGGCGAGGAUAUACAUGAGGAUCACCCAUGUGAGAGAAAAAAGUGAGGAAGAAAAGUAGAAGGCGCUGACC [salish99_ex3_r3_042] (puzzle: Exclusion 3)
[2]
  apparent KD of MS2 coat protein: 165 nM
[3]
  apparent KD of MS2 coat protein: 41 nM
[4]
  apparent KD of MS2 coat protein: 55.1 nM

## UUAUCCGCUGAGGAUAUUAUCAGUGAGAGCUGAUGAGAAGGCGGUACAUGAGGAUCACCCAUGUCUAUGGGCAG [Ex-6 Malc#24] (puzzle: Exclusion 6)
[2]
  apparent KD of MS2 coat protein: 472 nM
[3]
  apparent KD of MS2 coat protein: 337 nM
[4]
  apparent KD of MS2 coat protein: 435 nM

## UCGGGUAGAGGAUAUACAUAGAAAUAGAUUCAUGUAAAACUACAUGAGGAUCACCCAUGUAGAAGGCUAUCCGU [Mat - Exclusion 2 - JL Mod - D56] (Eterna round: R97, puzzle: Exclusion 2)
Input ligand: FMN 200 uM
  apparent KD of MS2 coat protein: 164 nM
Input ligand: none
  apparent KD of MS2 coat protein: 27.2 nM

## GGAAGGCGAGGAUAUGCAAUAAAGCAGGCGAAGGCCUGCAAACAUGAGGAUCACCCAUGUAGAAGGCGCGAGAA [AK-MS2ROC-r4-exclusion2-6.6] (Eterna round: R97, puzzle: Exclusion 2)
Input ligand: FMN 200 uM
  apparent KD of MS2 coat protein: 17.2 nM
Input ligand: none
  apparent KD of MS2 coat protein: 26.1 nM

## UCACGGGACUGAGGAUAUACAUGAAUUAUUUUUGUAGAAGGCAGAAUGUUAGAUUAUUCACUAUACAUGAGGAUCACCCAUGUU [JR_ExcNG1_Sub022] (Eterna round: R96, puzzle: Exclusion NG 1)
[1]
  apparent KD of MS2 coat protein: 18.8 nM

## CUUAGUAUCUAGGAUAUCUAGUACAUAGUAUCUAGAGAAGGAGAUACAUGAGGAUCACCCAUGUUCUGUGUUCU [Exclusion 6 - 1:b] (Eterna round: R96, puzzle: Exclusion 6)
[1]
  apparent KD of MS2 coat protein: 18.2 nM
Input ligand: none
  apparent KD of MS2 coat protein: 24.8 nM

## AUAUCCCGAGGAUAUACAUGAGGAUCACCCAUGUCGGGCCUCUGGCCUAAGGCCGAAAGUAGAAGGUGGGUUUC [JL Riri mod 11] (puzzle: Exclusion 3)
[3]
  apparent KD of MS2 coat protein: 126 nM

## UUAAAACGUGUAGGAUAUGCGUGGCGAAGCUAUGCAGAAGGACAUGAGGAUCACCCAUGUUCCUGCGUCCGCGUACGGAUGCAA [JL Eng1 1.21 mod 2] (Eterna round: R96, puzzle: Exclusion NG 1)
Input ligand: FMN 200 uM
  apparent KD of MS2 coat protein: 18 nM
[1]
  apparent KD of MS2 coat protein: 11.9 nM
Input ligand: none
  apparent KD of MS2 coat protein: 13.1 nM

## CAGUACUGAGGAUAUACAUGAGGAUCACCCAUGUGAUCUGGUGCACGCGUACGUGUACGUAGAAGGCAGUACUG [JL 3.27 m4] (Eterna round: R97, puzzle: Exclusion 3)
Input ligand: FMN 200 uM
  apparent KD of MS2 coat protein: 1280 nM
Input ligand: none
  apparent KD of MS2 coat protein: 121 nM

## GCCGUCAGUGUGAGGAUAUGCCUAUGGAUACGUAGGCAGAAGGCACAUGAGGAUCACCCAUGUCCAAAGACGGC [JL-BMX4-4.30 Eli mod] (Eterna round: R97, puzzle: Brourd's mod of Exclusion 4)
Input ligand: FMN 200 uM
  apparent KD of MS2 coat protein: 520 nM
Input ligand: none
  apparent KD of MS2 coat protein: 181 nM

## UCACGGGUUUGAGGAUAUAUUAUUAUUAUUUAAAUAGAAGGCAAAGAAAUUGUUAUUUCACUAUACAUGAGGAUCACCCAUGUU [JR_ExcNG1_Sub088] (Eterna round: R96, puzzle: Exclusion NG 1)
[1]
  apparent KD of MS2 coat protein: 19.5 nM

## GAGGUGUUAGGAUAUCGGAGAUGGAGAAGAACGGGAAGAGGCGAGAAGGAACAUGAGGAUCACCCAUGUAGGUG [JR_Exclu4_Sub029] (puzzle: Exclusion 4)
[3]
  apparent KD of MS2 coat protein: 357 nM

## GCAGGUUAAGUCAGGAUAUACCUAUGGAUACAUAGGUAGAAGGGACAUGAGGAUCACCCAUGUGUCUCGCCUGC [Fiskers BMX 4 - 70] (puzzle: Brourd's mod of Exclusion 4)
[3]
  apparent KD of MS2 coat protein: 62.7 nM

## UGGUAACAUGAGGAUCACCCAUGUCAGGAUAUCAGUAAGAAUAGAUUAGAUUAGAAUAUGAGAAGGGACUAUAU [Excluse me! 4 - Jieux - Exclusion 1] (puzzle: Exclusion 1)
[3]
  apparent KD of MS2 coat protein: 30.9 nM

## UAUUAGCAAGCACGAUCCCACAUGAGGAUCACCCAUGUGCUCGUCUUAUAAGGUACUGUGACGAAAGUCACGGUACC [Sensor 3, v1 - 94] (puzzle: Sensor v3, turn-off variant 1)
[2]
  apparent KD of MS2 coat protein: 64.2 nM
[3]
  apparent KD of MS2 coat protein: 847 nM
[4]
  apparent KD of MS2 coat protein: 75.9 nM

## GCAGCAACUCUAAUCAAACCAACAUGAGGAUCACCCAUGUCUCAGGAUAUGGUCUGGAUUACAGGCCAGAAGGGAGAAAGCUGC [Eli exng3 - 047] (Eterna round: R96, puzzle: Exclusion NG 3)
Input ligand: FMN 200 uM
  apparent KD of MS2 coat protein: 11.6 nM
[1]
  apparent KD of MS2 coat protein: 11.4 nM
Input ligand: none
  apparent KD of MS2 coat protein: 14.9 nM

## AAAUAACAAGCGAGAUCCUACAUGAGGAUCACCCAUGUGCUCGUCUUAAGAAGUACUAUCACGAAAGUGAUAGUACA [Mat - Sensor v3 - turn-off var 1 - Eli Mod - D68] (puzzle: Sensor v3, turn-off variant 1)
[2]
  apparent KD of MS2 coat protein: 17.6 nM
[3]
  apparent KD of MS2 coat protein: 66 nM
[4]
  apparent KD of MS2 coat protein: 14.7 nM

## GGGCCCGGAGGAUAUACAUGAGGAUCACCCAUGUAGGGCUCGGGUAUUCUCGGGCUCUGUAGAAGGCCGGGCCC [-39.6, -36.7 kcal, A 19%, 5,0] (Eterna round: R97, puzzle: Exclusion 3)
Input ligand: FMN 200 uM
  apparent KD of MS2 coat protein: 17.5 nM
Input ligand: none
  apparent KD of MS2 coat protein: 18.6 nM

## GUGGGCUUUUAGGUUCUUGACAUGAGGAUCACCCAUGUGCUUGUCUUGCUGGCUGGCGGGUCGUCGGUCGGGCUUGU (Eterna round: R97, puzzle: Sensor, turn-off variant 1)
Input ligand: FMN 200 uM
  apparent KD of MS2 coat protein: 559 nM
Input ligand: none
  apparent KD of MS2 coat protein: 646 nM

## UUAUAUAGUGUGAGGAUAUGCUGGUCCUUGGAUCAGCAGAAGGCACAUGAGGAUCACCCAUGUAGUUAAUAAUA [Mat - Exclusion 4 - JL Mod - D16] (puzzle: Brourd's mod of Exclusion 4)
[2]
  apparent KD of MS2 coat protein: 131 nM
[3]
  apparent KD of MS2 coat protein: 30 nM
[4]
  apparent KD of MS2 coat protein: 42.8 nM

## GUUUUCAGACGGAGAUCCUACAUGAGGAUCACCCAUGUCUCUCUAGCUAAUUGCUCGUCUUAUUCUCCUCUGUUCUC [Elimod 38 - Jieux - Sensor, turn-off variant 1] (Eterna round: R97, puzzle: Sensor, turn-off variant 1)
Input ligand: FMN 200 uM
  apparent KD of MS2 coat protein: 40 nM
Input ligand: none
  apparent KD of MS2 coat protein: 47.5 nM

## UGUGUGAGACAGGAUAUGCCGGUUGUAUUACUGGUAGAAGGGUCUACAUGAGGAUCACCCAUGUGGCCGGCCGG [Ex6 #82] (Eterna round: R97, puzzle: Exclusion 6)
Input ligand: FMN 200 uM
  apparent KD of MS2 coat protein: 73.1 nM
Input ligand: none
  apparent KD of MS2 coat protein: 26.2 nM

## GAAAAUGUGGAGGAUAUCGACUUCGAAAGAAGUCGAGAAGGCCACACAUGAGGAUCACCCAUGUGUUCCUUCAA [Omei Ex6 H2] (Eterna round: R97, puzzle: Exclusion 6)
Input ligand: FMN 200 uM
  apparent KD of MS2 coat protein: 569 nM
Input ligand: none
  apparent KD of MS2 coat protein: 52.2 nM

## GUCAUCACACAUGGGAUCAACAUGAGGAUCACCCAUGUUGCCAAGCCGUUUGCACGUCUUAUCAUACGUUUUUCGAU [Mod-Jxj] (Eterna round: R97, puzzle: Sensor, turn-off variant 1)
Input ligand: FMN 200 uM
  apparent KD of MS2 coat protein: 90.2 nM
Input ligand: none
  apparent KD of MS2 coat protein: 99.8 nM

## UUUAGUUCAGGAUAUGUAGAUUUUAACAUGAGGAUCACCCAUGUGGAUCCUGAAUUAACUACAGAAGGGAACAUUU [Mod of Brourd 3 - Jieux - Exclusion 5] (Eterna round: R97, puzzle: Exclusion 5)
Input ligand: FMN 200 uM
  apparent KD of MS2 coat protein: 294 nM
Input ligand: none
  apparent KD of MS2 coat protein: 43 nM

## CUGCUGGAGCUUUGCUUUGGUCGUACAUGAGGAUCACCCAUGUAGGAUAUGGUAGGAUUUGCUUGCUAGAAGGAUAGAGUGGUC [salish99_ExNG3_r04_610] (Eterna round: R96, puzzle: Exclusion NG 3)
Input ligand: FMN 200 uM
  apparent KD of MS2 coat protein: 92.7 nM
[1]
  apparent KD of MS2 coat protein: 36.1 nM
Input ligand: none
  apparent KD of MS2 coat protein: 54.5 nM

## CAUACUCAAGUCAGGAUAUAGACUCGGAUACGGAUCUAGAAGGGACAUGAGGAUCACCCAUGUAGAGAGUAAAG [EX-4 Malc #26] (puzzle: Brourd's mod of Exclusion 4)
[2]
  apparent KD of MS2 coat protein: 60.9 nM
[3]
  apparent KD of MS2 coat protein: 28.1 nM
[4]
  apparent KD of MS2 coat protein: 25 nM

## GGUGCUGGCGCGUCGGUGUUGGUGCAAUAAGCUUGUGAAACAUGAGGAUCACCCAUGUCCUCAUAAGCUCGUCUUAU [salish99_TOv2_r2_086] (Eterna round: R96, puzzle: Sensor v3, turn-off variant 2)
Input ligand: FMN 200 uM
  apparent KD of MS2 coat protein: 13.7 nM
[1]
  apparent KD of MS2 coat protein: 334 nM
Input ligand: none
  apparent KD of MS2 coat protein: 17.7 nM

## UCCUGGCGAGGAUAUACAAAGAUUUUUUCGUUUUGUUUCGAACAUGAGGAUCACCCAUGUAGAAGGUGCUGCUG [JR_Ex2_Sub015] (Eterna round: R97, puzzle: Exclusion 2)
Input ligand: FMN 200 uM
  apparent KD of MS2 coat protein: 46.4 nM
Input ligand: none
  apparent KD of MS2 coat protein: 46.7 nM
